In paper PMC10454365:

Target: Recombinant human LY6K protein (LY6K-Wt) (human) (UniProt Q17RY6)
Assay: SPR; LY6K immobilised on a CM5 chip by amine coupling (~6200–7000 RU); TbR1 injected at various concentrations, 50 μL/min; Biacore T200, 25 °C; running buffer PBS-P + 5% DMSO; 1:1 kinetics binding model

Kd: 9.2 nM
koff: 0.000468 s⁻¹
kon: 51000 M⁻¹ s⁻¹
B1: Recombinant human TbR1 protein (receptor)
chain: LQCFCHLCTKDNFTCVTDGLCFVSVTETTDKVIHNSMCIAEIDLIPRDRPFVCAPSSKTGSVTTTYCCNQDHCNKIELPTTVKSSPGLGPVEL
